Test results as given in patent US20030124132A1 (University of Texas, published 2003).

Legend:
[1] = target: I-A^d MHC Class II antigen (mouse) (UniProt P04228); test: FACS
[2] = tested on: cancer patients having progressive disease; details: progressive disease before treatment; cited from earlier work
[3] = target: I-A^d MHC Class II antigen (mouse) (UniProt P04228); test: cell-based or functional assay
TNFα = details: cited from earlier work
[4] = tested on: tissue factor on HUVEC cells; test: FACS analysis of tissue factor expression on endothelial cells; format: cell-based, human; details: TNFα 500 U/ml, LPS 10 μg/ml, VEGF 1 nM, alone or in combination, 6 h
Experimental: To analyze tissue factor expression on the surface of endothelial cells, HUVEC cells were incubated with TNFα (500 U/ml), LPS (10 μg/ml) or vascular endothelial growth factor (VEGF, 1 nM) alone or in combination for 6 h at 37°. Cells were then detached and stained for surface expression of human tissue factor with a sheep-anti-human tissue factor antibody (Haemochrom, Essen, Germany) and an appropriate FITC-conjugated secondary antibody. Fluorescent cells were detected on a flow cytometer (Becton Dickinson, San Jose, Calif.).

bEnd.3 endothelial cells [5] = test: PS surface expression on endothelial cells exposed to H2O2 (anti-PS IgM staining); format: cell-based, mouse
Experimental: (§1) Mouse bEnd.3 endothelial cells were seeded at an initial density of 50,000 cells/well. Twenty-fours later cells were incubated with increasing concentrations of H2O2 (from 10 μM to 500 μM) for 1 hour at 37° C. or left untreated. At the end of the incubation, cells were washed 3 times with PBS containing 0.2% gelatin and fixed with 0.25% glutaraldehyde. Identical wells were either stained with anti-PS IgM or trypsinized and evaluated for viability by the Trypan Blue exclusion test. For the anti-PS staining, after blocking with 2% gelatin for 10 min., cells were incubated with 2 μg/ml of anti-PS antibody, followed by detection with anti-mouse IgM-HRP conjugate.

bEnd.3 endothelial cells [6] = test: Viability of endothelial cells exposed to H2O2 (Trypan Blue exclusion); format: cell-based, mouse
Experimental: as §1

[7] = tested on: human umbilical vein endothelial cells (HUVEC); details: cited from earlier work
[8] = tested on: A20 lymphoma cells (I-A^d positive), mouse or human plasma; test: In vitro coagulation assay on A20 cells with capture bispecific antibody B21-2/10H10; format: cell-based; details: for concentration at which plasma coagulated in 50 seconds: bound via B21-2/10H10 to A20 cells, separate studies per block; for coagulation inducing activity lower than reference: versus monomer / unconjugated form or tTF219
[9] = tested on: Factor X to Xa conversion on A20 cells; test: Factor Xa production assay on A20 cells; format: cell-based, mouse; details: Factors II, VII, IX and X present
[10] = tested on: IL-1α-stimulated bEnd.3 cells; test: Chromogenic assay of Factor Xa formation by cell-bound coaguligand, with Annexin V; format: cell-based, mouse; details: Annexin V 10 μg per ml
Experimental: The ability of Annexin V to affect Factor Xa formation induced by coaguligand was determined by a chromogenic assay. […] Annexin V was added at concentrations ranging from 0.1 to 10 μg/ml and cells were incubated for 30 min. before addition of diluted Proplex T. The amount of Factor Xa generated in the presence or absence of Annexin V was determined. Each treatment was performed in duplicate and repeated at least twice.

[11] = tested on: L540 Hodgkin tumor blood vessels; test: Annexin V inhibition of coaguligand-induced thrombosis in vivo; design: species or system SCID mice; details: 100 μg Annexin V alone or 2 hours before 40 μg coaguligand
Experimental: The ability of Annexin V to inhibit coaguligand-induced thrombosis in vivo was examined in L540 Hodgkin-bearing SCID mice.
Four hours after the last injection mice were anesthetized and perfused with heparinized saline. Tumors were removed, fixed with 4% formalin, paraffin-embedded and stained with hematoxylene-eosin. The number of thrombosed and non-thrombosed blood vessels were counted and the percentage of thrombosis was calculated.
Groups of tumor-bearing mice were treated with one of the control or test reagents. […] Identical results were obtained in both mice per group.

[12] = target: T1, tissue factor on the surface of stimulated 2F2B mouse endothelial cells (mouse, UniProt P20352 29-294); test: FACS on 2F2B mouse endothelial cells stimulated with LPS or TNF alpha, detection with sheep anti-human TF antibody; also a cell bound coagulation assay
T1 construct: whole, on cells; also called cell-surface tissue factor; endogenous TF
T1 sequence (looked up): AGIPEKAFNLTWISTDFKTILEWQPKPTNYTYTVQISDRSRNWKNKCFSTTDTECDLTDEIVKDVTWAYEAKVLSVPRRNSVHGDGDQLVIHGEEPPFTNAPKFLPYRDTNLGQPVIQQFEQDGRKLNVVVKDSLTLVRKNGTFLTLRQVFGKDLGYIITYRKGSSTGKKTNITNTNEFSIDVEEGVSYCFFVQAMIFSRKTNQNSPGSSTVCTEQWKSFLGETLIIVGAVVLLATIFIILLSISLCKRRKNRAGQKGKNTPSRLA

Molecule: B21-2 anti-I-A^d antibody
- fold higher affinity than M5/114.15.2 [1]: 5 to 10 fold

Molecule: NC(=O)c1nnn(Cc2cc(Cl)c(C(=O)c3ccc(Cl)cc3)c(Cl)c2)c1N [CAI, carboxyamidotriazole]
- cancer patients with disease stabilization [2]: 49%

Molecule: B21-2/10H10 bispecific antibody
- time for fibrin strands to form after adding mouse plasma to A20 cells [3]: 36 s

Molecule: Cc1ccc2c(=O)c3cccc(CC(=O)O)c3oc2c1C [DMXAA]
- less effective than endotoxin in inducing TNFα (TNFα): 20 fold

Molecule: VEGF
- tissue factor expression on the surface of HUVEC [4]: upregulated tissue factor expression

Molecule: OO [H2O2]
- cells with PS at the cell surface (bEnd.3 endothelial cells [5]; H2O2 as low as 20 μM (lower than 100 μM)): about 50%
- cells with PS translocation (bEnd.3 endothelial cells [5]; H2O2 higher than 100 μM, 1 hour): ~90%
- cell viability (bEnd.3 endothelial cells [6]; H2O2 higher than 100 μM): 50-60%
- cell viability (bEnd.3 endothelial cells [6]; low levels of H2O2, identical to untreated cells): 95%
- viability ([7]; 15 μM H2O2): 90 to 95%
- viable cells ([7]; 1500 μM H2O2): 0%-50%

B1: IgG-H6-N′-cys-tTF219: one molecule of IgG linked via SMPT to one or two molecules of tTF (conjugate)
chain: HHHHHHAMALVPRGSCGTTNTVAAYNLTWKSTNFKTILEWEPKPVNQVYTVQISTKSGDWKSKCFYTTDTECDLTDEIVKDVKQTYLARVFSYPAGNVESTGSAGEPLYENSPEFTPYLETNLGQPTIQSFEQVGTKVNVTVEDERTLVRRNNTFLSLRDVFGKDLIYTLYYWKSSSSGKKTAKTNTNEFLIDVDKGENYCFSVQAVIPSRTVNRKSTDSPVECMGQEKGEFRE
modifications: left off: large carriers
- concentration at which plasma coagulated in 50 seconds [8]: 5 nM
- coagulation inducing activity lower than reference [8]: 5 fold
- less active than H6-N′-cys-tTF219 at inducing Xa formation [9]: 2 fold

B2: Fab′-H6-N′-cys-tTF219: Fab′ fragment disulfide-linked to H6-N′-cys-tTF219 (conjugate)
chain: HHHHHHAMALVPRGSCGTTNTVAAYNLTWKSTNFKTILEWEPKPVNQVYTVQISTKSGDWKSKCFYTTDTECDLTDEIVKDVKQTYLARVFSYPAGNVESTGSAGEPLYENSPEFTPYLETNLGQPTIQSFEQVGTKVNVTVEDERTLVRRNNTFLSLRDVFGKDLIYTLYYWKSSSSGKKTAKTNTNEFLIDVDKGENYCFSVQAVIPSRTVNRKSTDSPVECMGQEKGEFRE
modifications: left off: another chain or arm of the molecule; large carriers
- activity at inducing Xa formation relative to H6-N′-cys-tTF219 [9]: as active as H6-N′-cys-tTF219 itself

B3: H6-tTF220-cys-C′: tTF219 with Ile-Cys after amino acid 219, (His)6 (protein)
chain: HHHHHHAMALVPRGSGTTNTVAAYNLTWKSTNFKTILEWEPKPVNQVYTVQISTKSGDWKSKCFYTTDTECDLTDEIVKDVKQTYLARVFSYPAGNVESTGSAGEPLYENSPEFTPYLETNLGQPTIQSFEQVGTKVNVTVEDERTLVRRNNTFLSLRDVFGKDLIYTLYYWKSSSSGKKTAKTNTNEFLIDVDKGENYCFSVQAVIPSRTVNRKSTDSPVECMGQEKGEFRE
- concentration at which plasma coagulated in 50 seconds [8]: 0.5 nM

B4: H6-tTF221-cys-C′ dimer: chemically conjugated disulfide dimer of H6-tTF221-cys-C′ (protein)
chain: HHHHHHAMALVPRGSGTTNTVAAYNLTWKSTNFKTILEWEPKPVNQVYTVQISTKSGDWKSKCFYTTDTECDLTDEIVKDVKQTYLARVFSYPAGNVESTGSAGEPLYENSPEFTPYLETNLGQPTIQSFEQVGTKVNVTVEDERTLVRRNNTFLSLRDVFGKDLIYTLYYWKSSSSGKKTAKTNTNEFLIDVDKGENYCFSVQAVIPSRTVNRKSTDSPVECMGQEKGEFRE
- concentration at which plasma coagulated in 50 seconds [8]: 4 nM
- coagulation inducing activity lower than reference [8]: 4 fold

B5: tTF220-cys-C′: H6-tTF220-cys-C′ without the (His)6 tag (protein)
chain: GSGTTNTVAAYNLTWKSTNFKTILEWEPKPVNQVYTVQISTKSGDWKSKCFYTTDTECDLTDEIVKDVKQTYLARVFSYPAGNVESTGSAGEPLYENSPEFTPYLETNLGQPTIQSFEQVGTKVNVTVEDERTLVRRNNTFLSLRDVFGKDLIYTLYYWKSSSSGKKTAKTNTNEFLIDVDKGENYCFSVQAVIPSRTVNRKSTDSPVECMGQEKGEFREIC
- concentration at which plasma coagulated in 50 seconds [8]: 0.5 nM

B6: tTF221-cys-C′: H6-tTF221-cys-C′ without the (His)6 tag (protein)
chain: GSGTTNTVAAYNLTWKSTNFKTILEWEPKPVNQVYTVQISTKSGDWKSKCFYTTDTECDLTDEIVKDVKQTYLARVFSYPAGNVESTGSAGEPLYENSPEFTPYLETNLGQPTIQSFEQVGTKVNVTVEDERTLVRRNNTFLSLRDVFGKDLIYTLYYWKSSSSGKKTAKTNTNEFLIDVDKGENYCFSVQAVIPSRTVNRKSTDSPVECMGQEKGEFREIFC
- concentration at which plasma coagulated in 50 seconds [8]: 0.5 nM

B7: Annexin V: binds to PS with high affinity (protein, UniProt P08758 2-320, looked up)
Annexin A5: AQVLRGTVTDFPGFDERADAETLRKAMKGLGTDEESILTLLTSRSNAQRQEISAAFKTLFGRDLLDDLKSELTGKFEKLIVALMKPSRLYDAYELKHALKGAGTNEKVLTEIIASRTPEELRAIKQVYEEEYGSSLEDDVVGDTSGYYQRMLVVLLQANRDPDAGIDEAQVEQDAQALFQAGELKWGTDEEKFITIFGTRSVSHLRKVFDKYMTISGFQIEETIDRETSGNLEQLLLAVVKSIRSIPAYLAETLYYAMKGAGTDDHTLIRVMVSRSEIDLFNIRKEFRKNFATSLYSMIKGDTSGDYKKALLLLCGEDD
- inhibition of factor Xa production [10]: 58%
- effect on tumor thrombosis / morphology [11]: did not alter tumor morphology

B8: recombinant, depyrogenated truncated Tissue Factor (amino acids 1-219) of Example X (other, human, UniProt P13726 33-251, looked up)
chain: SGTTNTVAAYNLTWKSTNFKTILEWEPKPVNQVYTVQISTKSGDWKSKCFYTTDTECDLTDEIVKDVKQTYLARVFSYPAGNVESTGSAGEPLYENSPEFTPYLETNLGQPTIQSFEQVGTKVNVTVEDERTLVRRNNTFLSLRDVFGKDLIYTLYYWKSSSSGKKTAKTNTNEFLIDVDKGENYCFSVQAVIPSRTVNRKSTDSPVECMGQEKGEFRE
notes: also called tTF; endotoxin-free tTF
- binding result [12]: no binding

B9: H6-tTF219-cys-C′: tTF with (His)6 and a Cys after amino acid 219 (protein)
chain: HHHHHHAMALVPRGSGTTNTVAAYNLTWKSTNFKTILEWEPKPVNQVYTVQISTKSGDWKSKCFYTTDTECDLTDEIVKVKQTYLARVFSYPAGNVESTGSAGEPLYENSPEFTPYLETNLGQPTIQSFEQVGTKVNVTVEDRTLVRRNNTFLSLRDVFGKDLIYTLYYWKSSSSGKKTAKTNTNEFLIDVDKGENYCFSVQAVIPSRTVNRKSTDSPVECMGQEKGEFREC
- concentration at which plasma coagulated in 50 seconds [8]: 3 nM
